Experiments:
Assay in all cases: ELISA, lysate on plate-bound antigen
[1] = biological target: unrelated Fc-fused recombinant protein
[2] = biological target: human serum albumin (human) (UniProt P02768)
[3] = biological target: T1, recombinant biotinylated PD-L1 (rhPD-L1/Fc Chimera, R&D Systems 156-B7) (human, UniProt Q9NZQ7 19-238, biotinylated (sites not given))
T1 construct: Bought Fc chimera; also called human PD-L1
Description: Streptavidin-coated Maxisorp plates (Nunc catalog 436110) were blocked for 1 h in Starting Block T20 (Pierce) and then coated with biotinylated PD-L1 (using same antigen as in panning) or negative controls (an unrelated Fc-fused recombinant protein and human serum albumin) for 1 h. Plates were rinsed with TBST and diluted lysate was applied to plates for 1 h. Following additional rinses, wells were treated with HRP-conjugated anti-FN3 domain antibody (PAB25) for 1 h and then assayed with POD (Roche catalog 11582950001).

T1 sequence (Q9NZQ7 19-238, change not shown): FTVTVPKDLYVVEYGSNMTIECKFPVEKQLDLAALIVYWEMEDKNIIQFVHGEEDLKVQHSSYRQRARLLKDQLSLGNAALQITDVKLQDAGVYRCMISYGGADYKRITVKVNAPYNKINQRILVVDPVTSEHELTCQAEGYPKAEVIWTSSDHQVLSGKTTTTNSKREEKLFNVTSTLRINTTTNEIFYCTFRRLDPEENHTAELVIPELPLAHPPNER
human serum albumin (human), sequence (P02768 25-609 limits assumed): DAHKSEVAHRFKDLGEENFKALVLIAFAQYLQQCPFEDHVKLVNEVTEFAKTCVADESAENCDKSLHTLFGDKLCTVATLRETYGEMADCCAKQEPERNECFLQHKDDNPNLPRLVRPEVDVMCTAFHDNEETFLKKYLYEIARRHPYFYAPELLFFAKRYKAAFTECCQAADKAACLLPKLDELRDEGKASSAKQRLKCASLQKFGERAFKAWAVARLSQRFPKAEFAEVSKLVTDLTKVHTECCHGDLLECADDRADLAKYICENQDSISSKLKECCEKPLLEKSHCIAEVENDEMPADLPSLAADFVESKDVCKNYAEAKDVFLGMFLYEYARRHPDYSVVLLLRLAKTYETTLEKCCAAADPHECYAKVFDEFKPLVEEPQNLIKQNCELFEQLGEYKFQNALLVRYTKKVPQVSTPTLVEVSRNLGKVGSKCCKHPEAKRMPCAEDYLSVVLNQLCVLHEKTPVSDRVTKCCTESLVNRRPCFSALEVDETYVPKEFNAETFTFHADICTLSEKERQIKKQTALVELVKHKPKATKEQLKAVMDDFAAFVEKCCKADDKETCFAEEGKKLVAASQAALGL

| Binder | ELISA Fc Control (RSU) [1] | ELISA HSA (RSU) [2] | ELISA PD-L1 Fc (RSU) [3] |
| --- | --- | --- | --- |
| ISOP121AR5P1E11 (designed binder, not shown: small tags and cut ends, FN3 domain; E. coli lysate in the ELISA) LPAPKNLVVSRVTEDSARLSWSVQTSFVFDSFLIQYQESEKVGEAIVLTVPGSERSYDLTGLKPGTEYTVSIYGVPLWHGFDSNPLSAIFTT | 720 RSU | 720 RSU | 1.84e+06 RSU |
| ISOP121GR5P1G7 (designed binder, not shown: small tags and cut ends, FN3 domain; E. coli lysate in the ELISA) LPAPKNLVVSRVTEDSARLSWTAPDAAFDSFHIRYHEYDKNGEAIQLYVPGSERSYDLTGLKPGTEYGVYIHGVKGGGRSKPLWAHFTT | 800 RSU | 800 RSU | 368000 RSU |
| ISOP194GR9P1E9 (designed binder, not shown: small tags and cut ends, FN3 domain; E. coli lysate in the ELISA) LPAPKNLVVSRVTEDSARLSWTAPDAAFDSFHIRYHEYDKNGEAIQLYVPGSERSYDLTGLKPGTEYGVFIWGVKGGLKSKPLWAWFTT | 720 RSU | 1200 RSU | 2.82e+06 RSU |
| ISOP194HR9P1D11 (designed binder, not shown: small tags and cut ends, FN3 domain; E. coli lysate in the ELISA) LPAPKNLVVSRVTEDSARLSWTAPDAAFDSFSILYGELIGDGEAIVLTVPGSERSYDLTGLKPGTEYTVYIFGVKGGRYSRPLSAIFTT | 480 RSU | 1680 RSU | 6.62e+06 RSU |
| ISOP194HR9P1B2 (designed binder, not shown: small tags and cut ends, FN3 domain; E. coli lysate in the ELISA) LPAPKNLVVSRVTEDSARLSWTAPDAAFDSFSILYGELIGDGEAIVLTVPGSERSYDLTGLKPGSEYTVYIFGVKGGRYSRPLSAIFTT | 400 RSU | 1840 RSU | 5.66e+06 RSU |
| ISOP121FR5P1H9 (designed binder, not shown: small tags and cut ends, FN3 domain; E. coli lysate in the ELISA) LPAPKNLVVSRVTEDSARLSWTAPDAAFDSFSILYGETAPIGEAIVLTVPGSERSYDLTGLKPGTEYVVYIQGVKGGNYSQPLSAIFTT | 720 RSU | 880 RSU | 1.2e+06 RSU |
| ISOP121HR5P1F2 (designed binder, not shown: small tags and cut ends, FN3 domain; E. coli lysate in the ELISA) LPAPKNLVVSRVTEDSARLSWTAPDAAFDSFTILYGETYSGGEAIVLTVPGSERSYDLTGLKPGTEYVVYIFGVKGGKWSRPLSAIFTT | 480 RSU | 640 RSU | 907000 RSU |
| ISOP194BR9P1A5 (designed binder, not shown: small tags and cut ends, FN3 domain; E. coli lysate in the ELISA) LPAPKNLVVSRVTEDSARLSWFNADEEYFDSFLIQYQESEKVGEAIVLTVPGSERSYDLTGLKPGTEYTVSIYGVYQRGYHNWFSNPLSAIFTT | 800 RSU | 1280 RSU | 3.18e+06 RSU |
| ISOP121AR5P1H2 (designed binder, not shown: small tags and cut ends, FN3 domain; E. coli lysate in the ELISA) LPAPKNLVVSRVTEDSARLSWVIDEFIPLFDSFLIQYQESEKVGEAIVLTVPGSERSYDLTGLKPGTEYTVSIYGVLAKNIGISNPLSAIFTT | 880 RSU | 1120 RSU | 927000 RSU |
| ISOP121GR5P1F10 (designed binder, not shown: small tags and cut ends, FN3 domain; E. coli lysate in the ELISA) LPAPKNLVVSRVTEDSARLSWTAPDAAFDSFFIDYVERATVGEAIALNVPGSKRSYALTGLKPGTEYFVKIRGVKGGLKSKPLWAWFTT | 640 RSU | 640 RSU | 577000 RSU |
| ISOP121AR5P1C5 (designed binder, not shown: small tags and cut ends, FN3 domain; E. coli lysate in the ELISA) LPAPKNLVVSRVTEDSARLSWKRSDDEWFDSFLIQYQESEKVGEAIILTVPGSERSYDLTGLKPGTEYTVSIYGVYQRAALWFSNPLSAIFTT | 640 RSU | 560 RSU | 732000 RSU |
| ISOP194AR9P1E3 (designed binder, not shown: small tags and cut ends, FN3 domain; E. coli lysate in the ELISA) LPAPKNLVVSRVTEDSARLSWKRSDDEWFDSFLIQYQESEKVGEAIVLTVPGSERSYDLTGLKPGTEYTVSIYGVYQRAALWFSNPLSAIFTT | 1120 RSU | 800 RSU | 4.57e+06 RSU |
| ISOP121BR5P1F10 (designed binder, not shown: small tags and cut ends, FN3 domain; E. coli lysate in the ELISA) LPAPKNLVVSRVTEDSARLSWPLNLEYFDSFLIQYQESEKVGEAIVLTVPGSERSYDLTGLKPGTEYTVSIYGVYGRYGGPFVSNPLSAIFTT | 560 RSU | 720 RSU | 1.42e+06 RSU |
| ISOP121BR5P1D10 (designed binder, not shown: small tags and cut ends, FN3 domain; E. coli lysate in the ELISA) LPAPKNLVVSRVTEDSARLSWGKKSHFFDSFLIQYQESEKVGEAIVLTVPGSERSYDLTGLKPGTEYTVSIYGVYTRGQCEWESNQLSAIFFTT | 480 RSU | 880 RSU | 1.54e+06 RSU |
| ISOP121BR5P1D7 (designed binder, not shown: small tags and cut ends, FN3 domain; E. coli lysate in the ELISA) LPAPKNLGCFSRYRRLSRLSWETPYPSLSNFDSFLIQYQESEKVGEAIVLTVPGSERSYDLTGLKPGTEYTVSIYGVLKLSAAWWPSNPLSAIFTT | 800 RSU | 720 RSU | 12800 RSU |

— patent US20180162928A1 (Janssen / Centocor, published 2018)
